Earlier results, collected in article PMC8671138.
pKd: −log10 of the molar value.

Target: CD47 (Homo sapiens) (UniProt Q08722)
Sequence of UniProt Q08722 (Q08722 19-323): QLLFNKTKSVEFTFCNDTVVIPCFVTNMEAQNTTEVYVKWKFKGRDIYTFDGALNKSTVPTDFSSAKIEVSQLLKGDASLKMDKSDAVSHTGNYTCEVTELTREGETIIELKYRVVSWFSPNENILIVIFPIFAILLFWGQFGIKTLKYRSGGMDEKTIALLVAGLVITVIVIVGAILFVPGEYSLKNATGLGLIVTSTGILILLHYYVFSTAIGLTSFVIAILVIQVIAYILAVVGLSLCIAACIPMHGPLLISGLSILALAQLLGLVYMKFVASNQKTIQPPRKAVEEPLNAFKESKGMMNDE

pKd: 5.70
Substance: SIRPα (from UniProt P78324)
